Measured values published in the supplement of paper PMC10126150.
± gives the standard deviation of the averaged measurements.

Tested on: ATP
Experiment: switch fluorescence ratio, 500 uM ATP over buffer (Cy3 cluster intensity, sum of 5 cycles each) (fold (ratio)); higher = stronger signal-on switching upon ATP binding; sequences stand for … in TCGTCGGCAGCGTCAGATGTGTATAAGAGACAGTTTTTTTTTTTTTTTTTTTTTTTTT…TC
Conditions: aptamer strand: ATP DNA aptamer (quencher-CACCTGGGGGAGTATTGCGGAGGAAGG + anchor), 100 nM annealed; ATP concentration: 500 uM
Summary of the method: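 Five buffer/ATP imaging cycles were run on Cy3-labelled switching-strand clusters on a modified Illumina MiSeq flow-cell, with NaOH stripping and re-annealing between cycles. In each cycle, clusters annealed to 100 nM quencher-labelled ATP aptamer were imaged in selection buffer, then after 15 min with 500 uM ATP at 22 °C. Per cluster, the fluorescence ratio is summed target-cycle over summed buffer-cycle Cy3 intensity, averaged per switch-domain sequence. Only clusters within 100-1000 RFU were kept.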
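Note: ATP exposure 15 min at 22 °C before imaging.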

Sequence	switch fluorescence ratio
GGGGACACAG	0.979 ± 0.015
TAGGAGTTGC	0.971 ± 0.052
TTTGTGTTGG	0.993 ± 0.027
GGGCCCAAAG	1 ± 0.021
GTTTTTGGGC	0.985 ± 0.026
GTCCAAGGGT	1.01 ± 0.035
TAGTTTGGAT	1.01 ± 0.026
GGTTGAGGGA	0.979 ± 0.016
ACTCTACTTG	1.42 ± 0.16
CTGACATGAT	1.07 ± 0.04
CACGGGGGA	0.974 ± 0.025
TTTTCCTTCT	1.09 ± 0.089
TTCGTGTTAT	0.995 ± 0.021
TTTGCCGGAG	1.08 ± 0.065
GGTATGTTGG	0.996 ± 0.011
TAGGGATTTT	0.986 ± 0.018
CGGTCCGGG	1.05 ± 0.061
CCAAATGAGT	0.989 ± 0.012
AGGGGGGGGG	1.02 ± 0.072
AGAGAAAGTA	0.98799 ± 0.0004
GGACTTTTTT	1.03 ± 0.016
AGTCCTTAAG	1 ± 0.025
CACCTTAATT	1.037 ± 0.0075

Sequence	switch fluorescence ratio
GTGGGTAAAG	0.975 ± 0.01
TAATGTTTAT	0.996 ± 0.026
ACAACCGGGG	1.37 ± 0.029
CGCTATTGTT	1.028 ± 0.0065
CTGGTTTTCA	0.988 ± 0.024
CGGGGCGCTA	1.21 ± 0.29
GGGGGGGTAA	0.993 ± 0.027
GCGTTTTGAG	0.981 ± 0.025
TTTGTCAGGG	0.992 ± 0.062
GTTCGTCTTT	1 ± 0.013
GATTTTGTAC	1.012 ± 0.0043
GCGGCTGGTT	0.981 ± 0.05
GTAGAGAGTG	1 ± 0.02
TTTAAGTTTT	1 ± 0.022
GGGGGTTTGC	0.991 ± 0.059
AAGCTGAAGT	1.03 ± 0.035
GGATGAGTTA	0.983 ± 0.015
TCTGTATGTA	1.01 ± 0.026
TTTACTTATT	1 ± 0.019
TATGGGTCGG	1 ± 0.043
GATGGTTGGG	0.998 ± 0.029
ATACGGGGGG	0.989 ± 0.017
ACCTGTGAGT	0.9909 ± 0.0019

Sequence	switch fluorescence ratio
AATATTGCAC	1.04 ± 0.021
GGTCGGGGGA	0.99 ± 0.061
CGTGGTATGG	0.9976 ± 0.003
AGTTACAGCT	1.03 ± 0.032
TTGGGTGAAG	1.01 ± 0.025
TGATGGGGTA	1.04 ± 0.019
CGCATTCTGC	1.17 ± 0.091
ATCCGGTCGG	1.03 ± 0.066
AACACGGAAC	1.29 ± 0.027
AATTCAGCAT	1.03 ± 0.036
TTTTTGTTTA	0.971 ± 0.038
TACCGTTGGG	1.01 ± 0.038
TATATGGTTG	0.9383 ± 0.0022
AATGCGTTCG	0.99211 ± 0.00042
GGGATATCAT	0.9903 ± 0.0048
TAATCTAATA	0.987 ± 0.046
CGGAGGGGTC	1.02 ± 0.02
ATCCGGTCGC	1.04 ± 0.029
AGAAGTTGGA	1 ± 0.05
TACGGCTTTT	1.01 ± 0.0062
TGAGGTTGGC	1.01 ± 0.023
GGGATGGCAT	0.995 ± 0.034
ACAAATTGTT	1.09 ± 0.069

Sequence	switch fluorescence ratio
GAAAGGGGCT	0.993 ± 0.031
GGTTTGAAAA	1.01 ± 0.032
ATTGTTAGGG	0.985 ± 0.019
TTTACTTA	1.0157 ± 0.00064
GTGGGGGTTA	0.996 ± 0.03
ATTTATAATT	0.992 ± 0.028
TTTTTATATC	0.99 ± 0.028
ATATATTGAG	0.995 ± 0.019
GACTCGGTGC	1.05 ± 0.019
CACGTGTGGT	0.988 ± 0.036
GGTACAGGGC	1.065 ± 0.0073
TTATCATCCG	1.08 ± 0.038
TGAGTTGGAC	1.08 ± 0.067
GGTTGCATCG	0.986 ± 0.012
CAATAATGTA	1.03 ± 0.051
ATTTCTCGGT	1.07 ± 0.066
CGGATTAGTG	0.964 ± 0.018
TTATTTCATG	0.984 ± 0.022
TAAGGGTCAG	0.9953 ± 0.0012
CTCATCGGGC	1.06 ± 0.032
GGCGATGTAT	0.967 ± 0.0097
GTGGATAGCT	1 ± 0.05
ACTGGGTTTT	1.022 ± 0.0022

Sequence	switch fluorescence ratio
ACAGCTGTTA	1.02 ± 0.019
ACATAGTTTG	0.9892 ± 0.0034
AGGGGGAGCT	1.005 ± 0.0056
ATATCCGACA	1.054 ± 0.0056
GATTAGGAGT	0.985 ± 0.014
TGACCGAAAC	1.2 ± 0.051
CGCATTCTAA	1.31 ± 0.019
TGATAAGGAG	1.01 ± 0.012
TAGGGGTGAT	1.02 ± 0.047
TGCTGGGGTT	0.9764 ± 0.0047
TTTAACCAAT	1.02 ± 0.064
AATAAAAGGA	0.997 ± 0.013
GTGGGGGACG	0.982 ± 0.021
GGACAGGGGG	0.9633 ± 0.0051
AAGTTGTGAC	0.997 ± 0.028
GGCTGGGGCT	0.973 ± 0.026
GGGGGGCCCA	1.0208 ± 0.00082
TTTAATTTTC	1.05 ± 0.14
CTTCGGGTAC	3.69 ± 0.79
CAAATGGGG	0.9589 ± 0.006
ACCTGATTAT	1.02 ± 0.02
TTAGAACTCT	1.01 ± 0.014
TTAAAATGTA	0.992 ± 0.03

Sequence	switch fluorescence ratio
AAGTGCGGGC	1.04 ± 0.027
GAGGGAGAAA	1.03 ± 0.038
AATGGGGGCG	0.9633 ± 0.0089
TGGGTTGTTT	0.986 ± 0.031
AGGGCGGGGC	0.944 ± 0.061
ATTTACGGGG	1.04 ± 0.0031
GCACGGAGGG	1.01 ± 0.023
GGCGTAAAGT	1.02 ± 0.036
CCCGGTATAT	1.22 ± 0.12
CCGTTAGCTT	2.2 ± 0.079
ACTACGTGGG	1.0708 ± 0.00037
ATTGGGGTAT	1 ± 0.03
AGTGGTGGG	1.02 ± 0.068
CGGTATTGGT	0.976 ± 0.031
TTAGGGGCAG	0.981 ± 0.034
TTTACTTACG	1.22 ± 0.18
GGCGGCAAAA	1.07 ± 0.042
ACCCATGCGA	1.13 ± 0.036
GTTAGGCCTG	0.969 ± 0.013
TTCGGGTTTG	1 ± 0.034
TTTTAATTCG	1.057 ± 0.0035
TAGAGTTCTC	1.01 ± 0.013
TAATGTGCAA	1.09 ± 0.013

Sequence	switch fluorescence ratio
ATTACACTGC	1.01 ± 0.066
AGAATTTTTG	0.963 ± 0.075
TGTGGGTCGG	0.968 ± 0.026
TGTTGGAGAA	0.988 ± 0.011
CATGTATGCT	1 ± 0.014
AATGTGAGCT	1.04 ± 0.043
ATGATCAATT	1.02 ± 0.049
GGGGGCATGG	1 ± 0.02
TTACAAGTTA	1.05 ± 0.064
TGAAGGGGCT	0.9833 ± 0.0052
CCGGGCTGGG	1.03 ± 0.018
TGCCCCACGT	1.17 ± 0.16
TGTGACTCGG	0.978 ± 0.016
TATAGGAGGG	0.991 ± 0.039
GCCCCCAGCG	4.61 ± 0.65
TGTTATAATC	1.08 ± 0.064
TTAACATGGG	1 ± 0.033
TAAGGGGGTC	0.981 ± 0.012
CTAACAATAA	1.05 ± 0.081
